Measurements published in patent US20240279278A1, “NMU RECEPTOR 2 AGONISTS” (Boehringer Ingelheim International GmbH, priority 2023, published 2024).

T1: human neuromedin U receptor 1 (human, UniProt Q9HB89 24-426)
T1 sequence (looked up): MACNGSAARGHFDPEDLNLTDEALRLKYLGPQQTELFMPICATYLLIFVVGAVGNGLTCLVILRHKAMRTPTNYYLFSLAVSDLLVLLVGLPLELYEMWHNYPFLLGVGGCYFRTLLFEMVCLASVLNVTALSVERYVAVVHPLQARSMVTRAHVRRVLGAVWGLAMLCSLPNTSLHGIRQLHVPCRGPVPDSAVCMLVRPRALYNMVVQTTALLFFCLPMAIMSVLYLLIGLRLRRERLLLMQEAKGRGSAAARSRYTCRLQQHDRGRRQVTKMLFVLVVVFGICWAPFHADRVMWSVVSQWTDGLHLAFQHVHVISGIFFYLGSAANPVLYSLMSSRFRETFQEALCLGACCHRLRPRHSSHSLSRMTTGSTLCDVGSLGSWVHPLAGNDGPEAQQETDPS

B1: C20DA-gGlu4-Sar12-AEPipAc-Tyr-Phe-NMeLeu-Nle-Arg-Pro-Arg-Gly-NH2 (peptide)
peptide: EEEEXXXXXXXXXXXXXYFLXRPRG
HELM: PEPTIDE1{[O=C(O)CCCCCCCCCCCCCCCCCCC(=O)[*:2]].[gGlu].[gGlu].[gGlu].[gGlu].[Sar].[Sar].[Sar].[Sar].[Sar].[Sar].[Sar].[Sar].[Sar].[Sar].[Sar].[Sar].[O=C(CN1CCN(CCN[*:1])CC1)[*:2]].Y.F.[meL].[Nle].R.P.R.G.[am]}$$$$V2.0
SMILES: CCCC[C@H](NC(=O)[C@H](CC(C)C)N(C)C(=O)[C@H](Cc1ccccc1)NC(=O)[C@H](Cc1ccc(O)cc1)NC(=O)CN1CCN(CCNC(=O)CN(C)C(=O)CN(C)C(=O)CN(C)C(=O)CN(C)C(=O)CN(C)C(=O)CN(C)C(=O)CN(C)C(=O)CN(C)C(=O)CN(C)C(=O)CN(C)C(=O)CN(C)C(=O)CN(C)C(=O)CC[C@H](NC(=O)CC[C@H](NC(=O)CC[C@H](NC(=O)CC[C@H](NC(=O)CCCCCCCCCCCCCCCCCCC(=O)O)C(=O)O)C(=O)O)C(=O)O)C(=O)O)CC1)C(=O)N[C@@H](CCCNC(=N)N)C(=O)N1CCC[C@H]1C(=O)N[C@@H](CCCNC(=N)N)C(=O)NCC(N)=O
B2: C18DA-gGlu4-Sar12-AEPipAc-Tyr-Phe-NMeLeu-Nle-Dbu-Pro-Arg-Gly-NH2 (peptide)
peptide: EEEEXXXXXXXXXXXXXYFLXXPRG
HELM: PEPTIDE1{[O=C(O)CCCCCCCCCCCCCCCCC(=O)[*:2]].[gGlu].[gGlu].[gGlu].[gGlu].[Sar].[Sar].[Sar].[Sar].[Sar].[Sar].[Sar].[Sar].[Sar].[Sar].[Sar].[Sar].[O=C(CN1CCN(CCN[*:1])CC1)[*:2]].Y.F.[meL].[Nle].[Dab].P.R.G.[am]}$$$$V2.0
SMILES: CCCC[C@H](NC(=O)[C@H](CC(C)C)N(C)C(=O)[C@H](Cc1ccccc1)NC(=O)[C@H](Cc1ccc(O)cc1)NC(=O)CN1CCN(CCNC(=O)CN(C)C(=O)CN(C)C(=O)CN(C)C(=O)CN(C)C(=O)CN(C)C(=O)CN(C)C(=O)CN(C)C(=O)CN(C)C(=O)CN(C)C(=O)CN(C)C(=O)CN(C)C(=O)CN(C)C(=O)CC[C@H](NC(=O)CC[C@H](NC(=O)CC[C@H](NC(=O)CC[C@H](NC(=O)CCCCCCCCCCCCCCCCC(=O)O)C(=O)O)C(=O)O)C(=O)O)C(=O)O)CC1)C(=O)N[C@@H](CCN)C(=O)N1CCC[C@H]1C(=O)N[C@@H](CCCNC(=N)N)C(=O)NCC(N)=O
B3: C20DA-gGlu3-Sar15-AEPipAc-Tyr-Phe-NMeLeu-Nle-Orn-NMeAla-Arg-Gly-NH2 (peptide)
peptide: EEEXXXXXXXXXXXXXXXXYFLXXARG
HELM: PEPTIDE1{[O=C(O)CCCCCCCCCCCCCCCCCCC(=O)[*:2]].[gGlu].[gGlu].[gGlu].[Sar].[Sar].[Sar].[Sar].[Sar].[Sar].[Sar].[Sar].[Sar].[Sar].[Sar].[Sar].[Sar].[Sar].[Sar].[O=C(CN1CCN(CCN[*:1])CC1)[*:2]].Y.F.[meL].[Nle].[Orn].[meA].R.G.[am]}$$$$V2.0
SMILES: CCCC[C@H](NC(=O)[C@H](CC(C)C)N(C)C(=O)[C@H](Cc1ccccc1)NC(=O)[C@H](Cc1ccc(O)cc1)NC(=O)CN1CCN(CCNC(=O)CN(C)C(=O)CN(C)C(=O)CN(C)C(=O)CN(C)C(=O)CN(C)C(=O)CN(C)C(=O)CN(C)C(=O)CN(C)C(=O)CN(C)C(=O)CN(C)C(=O)CN(C)C(=O)CN(C)C(=O)CN(C)C(=O)CN(C)C(=O)CN(C)C(=O)CC[C@H](NC(=O)CC[C@H](NC(=O)CC[C@H](NC(=O)CCCCCCCCCCCCCCCCCCC(=O)O)C(=O)O)C(=O)O)C(=O)O)CC1)C(=O)N[C@@H](CCCN)C(=O)N(C)[C@@H](C)C(=O)N[C@@H](CCCNC(=N)N)C(=O)NCC(N)=O
B4: C18DA-gGlu3-Sar12-AEPipAc-Tyr-Phe-NMeLeu-Nle-NMeArg-Pro-Arg-Gly-NH2 (peptide)
peptide: EEEXXXXXXXXXXXXXYFLXRPRG
HELM: PEPTIDE1{[O=C(O)CCCCCCCCCCCCCCCCC(=O)[*:2]].[gGlu].[gGlu].[gGlu].[Sar].[Sar].[Sar].[Sar].[Sar].[Sar].[Sar].[Sar].[Sar].[Sar].[Sar].[Sar].[O=C(CN1CCN(CCN[*:1])CC1)[*:2]].Y.F.[meL].[Nle].[meR].P.R.G.[am]}$$$$V2.0
SMILES: CCCC[C@H](NC(=O)[C@H](CC(C)C)N(C)C(=O)[C@H](Cc1ccccc1)NC(=O)[C@H](Cc1ccc(O)cc1)NC(=O)CN1CCN(CCNC(=O)CN(C)C(=O)CN(C)C(=O)CN(C)C(=O)CN(C)C(=O)CN(C)C(=O)CN(C)C(=O)CN(C)C(=O)CN(C)C(=O)CN(C)C(=O)CN(C)C(=O)CN(C)C(=O)CN(C)C(=O)CC[C@H](NC(=O)CC[C@H](NC(=O)CC[C@H](NC(=O)CCCCCCCCCCCCCCCCC(=O)O)C(=O)O)C(=O)O)C(=O)O)CC1)C(=O)N(C)[C@@H](CCCNC(=N)N)C(=O)N1CCC[C@H]1C(=O)N[C@@H](CCCNC(=N)N)C(=O)NCC(N)=O
B5: C20DA-gGlu4-Sar12-AEPipAc-Tyr-Phe-NMeLeu-Nle-Orn-Pro-Arg-Gly-NH2 (peptide)
peptide: EEEEXXXXXXXXXXXXXYFLXXPRG
HELM: PEPTIDE1{[O=C(O)CCCCCCCCCCCCCCCCCCC(=O)[*:2]].[gGlu].[gGlu].[gGlu].[gGlu].[Sar].[Sar].[Sar].[Sar].[Sar].[Sar].[Sar].[Sar].[Sar].[Sar].[Sar].[Sar].[O=C(CN1CCN(CCN[*:1])CC1)[*:2]].Y.F.[meL].[Nle].[Orn].P.R.G.[am]}$$$$V2.0
SMILES: CCCC[C@H](NC(=O)[C@H](CC(C)C)N(C)C(=O)[C@H](Cc1ccccc1)NC(=O)[C@H](Cc1ccc(O)cc1)NC(=O)CN1CCN(CCNC(=O)CN(C)C(=O)CN(C)C(=O)CN(C)C(=O)CN(C)C(=O)CN(C)C(=O)CN(C)C(=O)CN(C)C(=O)CN(C)C(=O)CN(C)C(=O)CN(C)C(=O)CN(C)C(=O)CN(C)C(=O)CC[C@H](NC(=O)CC[C@H](NC(=O)CC[C@H](NC(=O)CC[C@H](NC(=O)CCCCCCCCCCCCCCCCCCC(=O)O)C(=O)O)C(=O)O)C(=O)O)C(=O)O)CC1)C(=O)N[C@@H](CCCN)C(=O)N1CCC[C@H]1C(=O)N[C@@H](CCCNC(=N)N)C(=O)NCC(N)=O
B6: C20DA-gGlu4-Sar15-AEPipAc-Tyr-Phe-NMeLeu-Nle-Dbu-Pro-Arg-Gly-NH2 (peptide)
peptide: EEEEXXXXXXXXXXXXXXXXYFLXXPRG
HELM: PEPTIDE1{[O=C(O)CCCCCCCCCCCCCCCCCCC(=O)[*:2]].[gGlu].[gGlu].[gGlu].[gGlu].[Sar].[Sar].[Sar].[Sar].[Sar].[Sar].[Sar].[Sar].[Sar].[Sar].[Sar].[Sar].[Sar].[Sar].[Sar].[O=C(CN1CCN(CCN[*:1])CC1)[*:2]].Y.F.[meL].[Nle].[Dab].P.R.G.[am]}$$$$V2.0
SMILES: CCCC[C@H](NC(=O)[C@H](CC(C)C)N(C)C(=O)[C@H](Cc1ccccc1)NC(=O)[C@H](Cc1ccc(O)cc1)NC(=O)CN1CCN(CCNC(=O)CN(C)C(=O)CN(C)C(=O)CN(C)C(=O)CN(C)C(=O)CN(C)C(=O)CN(C)C(=O)CN(C)C(=O)CN(C)C(=O)CN(C)C(=O)CN(C)C(=O)CN(C)C(=O)CN(C)C(=O)CN(C)C(=O)CN(C)C(=O)CN(C)C(=O)CC[C@H](NC(=O)CC[C@H](NC(=O)CC[C@H](NC(=O)CC[C@H](NC(=O)CCCCCCCCCCCCCCCCCCC(=O)O)C(=O)O)C(=O)O)C(=O)O)C(=O)O)CC1)C(=O)N[C@@H](CCN)C(=O)N1CCC[C@H]1C(=O)N[C@@H](CCCNC(=N)N)C(=O)NCC(N)=O
B7: C18DA-gGlu3-Sar12-AEPipAc-Tyr-Phe-NMeLeu-Nle-NMeArg-NMeAla-Arg-Gly-NH2 (peptide)
peptide: EEEXXXXXXXXXXXXXYFLXRARG
HELM: PEPTIDE1{[O=C(O)CCCCCCCCCCCCCCCCC(=O)[*:2]].[gGlu].[gGlu].[gGlu].[Sar].[Sar].[Sar].[Sar].[Sar].[Sar].[Sar].[Sar].[Sar].[Sar].[Sar].[Sar].[O=C(CN1CCN(CCN[*:1])CC1)[*:2]].Y.F.[meL].[Nle].[meR].[meA].R.G.[am]}$$$$V2.0
SMILES: CCCC[C@H](NC(=O)[C@H](CC(C)C)N(C)C(=O)[C@H](Cc1ccccc1)NC(=O)[C@H](Cc1ccc(O)cc1)NC(=O)CN1CCN(CCNC(=O)CN(C)C(=O)CN(C)C(=O)CN(C)C(=O)CN(C)C(=O)CN(C)C(=O)CN(C)C(=O)CN(C)C(=O)CN(C)C(=O)CN(C)C(=O)CN(C)C(=O)CN(C)C(=O)CN(C)C(=O)CC[C@H](NC(=O)CC[C@H](NC(=O)CC[C@H](NC(=O)CCCCCCCCCCCCCCCCC(=O)O)C(=O)O)C(=O)O)C(=O)O)CC1)C(=O)N(C)[C@@H](CCCNC(=N)N)C(=O)N(C)[C@@H](C)C(=O)N[C@@H](CCCNC(=N)N)C(=O)NCC(N)=O
B8: C20DA-gGlu3-Sar15-AEPipAc-Tyr-Phe-NMeLeu-Nle-NMeArg-NMeAla-Arg-Gly-NH2 (peptide)
peptide: EEEXXXXXXXXXXXXXXXXYFLXRARG
HELM: PEPTIDE1{[O=C(O)CCCCCCCCCCCCCCCCCCC(=O)[*:2]].[gGlu].[gGlu].[gGlu].[Sar].[Sar].[Sar].[Sar].[Sar].[Sar].[Sar].[Sar].[Sar].[Sar].[Sar].[Sar].[Sar].[Sar].[Sar].[O=C(CN1CCN(CCN[*:1])CC1)[*:2]].Y.F.[meL].[Nle].[meR].[meA].R.G.[am]}$$$$V2.0
SMILES: CCCC[C@H](NC(=O)[C@H](CC(C)C)N(C)C(=O)[C@H](Cc1ccccc1)NC(=O)[C@H](Cc1ccc(O)cc1)NC(=O)CN1CCN(CCNC(=O)CN(C)C(=O)CN(C)C(=O)CN(C)C(=O)CN(C)C(=O)CN(C)C(=O)CN(C)C(=O)CN(C)C(=O)CN(C)C(=O)CN(C)C(=O)CN(C)C(=O)CN(C)C(=O)CN(C)C(=O)CN(C)C(=O)CN(C)C(=O)CN(C)C(=O)CC[C@H](NC(=O)CC[C@H](NC(=O)CC[C@H](NC(=O)CCCCCCCCCCCCCCCCCCC(=O)O)C(=O)O)C(=O)O)C(=O)O)CC1)C(=O)N(C)[C@@H](CCCNC(=N)N)C(=O)N(C)[C@@H](C)C(=O)N[C@@H](CCCNC(=N)N)C(=O)NCC(N)=O

Each binder was assayed against T1, human neuromedin U receptor 1 (assay: cell-based or functional assay).

Binder	EC50 (hNMUR1) buffer [nM]
B1	190
B2	1300
B3	> 1000
B4	190
B5	950
B6	770
B7	1300
B8	1400
